Results taken from patent US20060140967A1 (US Dept. of Health and Human Services, published 2006).

B1: TARP-27-35 (peptide)
peptide: FVFLRNFSL
B2: TARP-29-37 (peptide)
peptide: FLRNFSLML
notes: also called wild-type peptide
B3: TARP-29-37-9V (peptide)
peptide: FLRNFSLMV
B4: TARP-29-37-3A (peptide)
peptide: FLANFSLML
B5: TARP-27-35-2L (peptide)
peptide: FLFLRNFSL
B6: TARP-27-35-9V (peptide)
peptide: FVFLRNFSV
B7: TARP-2-9 (peptide)
peptide: QMFPPSPL
notes: The limits should be checked against the listing
B8: TARP-22-30 (peptide)
peptide: RLEHTFVFL
B9: TARP-27-35 with substitution with Ala at position 3 (peptide)
peptide: FVALRNFSL

target: T1, HLA-A2.1 molecules on TAP-deficient T2 cells (human); assay: T2 binding assay, flow cytometry; reference TARP-29-37
T1 construct: MHC class I molecule on T2 cells; also called HLA-A2 molecules
Method: (§1) T2-binding assay. […] After washing, cells were stained with FITC-labeled goat anti-mouse Ig (PharMingen, San Diego, Calif.) and the level of HLA-A2.1 expression was measured by flow cytometry. HLA-A2.1 expression was quantified as fluorescence index (FI) according to the formula: FI=(mean fluorescence intensity with peptide-mean fluorescence intensity without peptide)/mean fluorescence intensity without peptide.
(§2) To determine HLA-A2.1 epitopes from the TARP, four different wild-type peptides were first predicted based on the anchor residues (FIG. 1B) and their binding affinities to HLA-A2.1 molecules were measured by the T2-binding assay.

Binder | fold higher binding affinity than TARP-29-37 [fold]
B1 | ~10

target: T1, HLA-A2.1 molecules on TAP-deficient T2 …; assay: T2 binding assay, flow cytometry
Method: as §1

Binder | binding result
B2 | binds
B3 | binds
B4 | binds
B5 | binds
B6 | binds

target: T1, HLA-A2.1 molecules on TAP-deficient T2 …; assay: T2 binding assay, flow cytometry with anti-HLA-A2.1
Method: as §1, §2

Binder | binding result
B7 | no binding
B8 | no binding
B9 | no binding
